Numbering of substitutions follows the chain as printed. In names and notes the source's numbering stands.
Substrate: O=C(COP(=O)(O)O)[C@@H](O)[C@H](O)[C@H](O)COP(=O)(O)O
Assay: purified protein, by the assay type
Details: apparent Km for substrate FBP, pH 7.5, 37.0 °C
[1] = other: enzyme M177A_2 (second clone)

B1: pig kidney FBPase L73A (Sus scrofa; L74A) (protein)
chain: MTDQAAFDTNIVTLTRFVMEEGRKARGTGEMTQLLNSLCTAVKAISTAVRKAGIAHLYGIAGSTNVTGDQVKKADVLSNDLVINVLKSSFATCVLVSEEDKNAIIVEPEKRGKYVVCFDPLDGSSNIDCLVSIGTIFGIYRKNSTDEPSEKDALQPGRNLVAAGYALYGSATMLVLAMVNGVNCFMLDPAIGEFILVDRDVKIKKKGSIYSINEGYAKEFDPAITEYIQRKKFPPDNSAPYGARYVGSMVADVHRTLVYGGIFMYPANKKSPKGKLRLLYECNPMAYVMEKAGGLATTGKEAVLDIVPTDIHQRAPIILGSPEDVTELLEIYQKHAAK
With B1 the Km (other: enzyme L73A) was 5.10 (± 0.3) µM, the Vmax (other: enzyme L73A) was 50.5 µM/min and the kcat (other: enzyme L73A) was 22.5 s⁻¹. The kcat/Km (other: enzyme L73A) was 4.41e+06 M⁻¹ s⁻¹.

B2: pig kidney FBPase Y164A (Sus scrofa; Y165A) (protein)
chain: B1 chain with A74L, Y165A
For B2, the Km (other: enzyme Y164A) was 5.30 (± 0.6) µM, the Vmax (other: enzyme Y164A) was 27.5 µM/min and the kcat (other: enzyme Y164A) was 13.5 s⁻¹. It also gave a kcat/Km (other: enzyme Y164A) of 2.6e+06 M⁻¹ s⁻¹.

B3: pig kidney FBPase K112A (Sus scrofa; K113A) (protein)
chain: B1 chain with A74L, K113A
With B3 the Km (other: enzyme K112A) was 3.25 (± 0.2) µM, the Vmax (other: enzyme K112A) was 54.7 µM/min and the kcat (other: enzyme K112A) was 26.8 s⁻¹. It also gave a kcat/Km (other: enzyme K112A) of 8.25e+06 M⁻¹ s⁻¹.

B4: pig kidney FBPase Y113A (Sus scrofa; Y114A) (protein)
chain: B1 chain with A74L, Y114A
With B4 the Km (other: enzyme Y113A) was 2.50 (± 0.3) µM, the Vmax (other: enzyme Y113A) was 55.5 µM/min and the kcat (other: enzyme Y113A) was 27.2 s⁻¹. It also gave a kcat/Km (other: enzyme Y113A) of 1.09e+07 M⁻¹ s⁻¹.

B5: pig kidney FBPase WT (Sus scrofa) (protein)
chain: B1 chain with A74L
In the case of B5, the Km (other: enzyme WT) is reported as 4.80 (± 0.5) µM, the Vmax (other: enzyme WT) is reported as 41.8 µM/min and the kcat (other: enzyme WT) is reported as 20.5 s⁻¹. It also gave a kcat/Km (other: enzyme WT) of 4.3e+06 M⁻¹ s⁻¹.

B6: pig kidney FBPase M248D (Sus scrofa; M249D) (protein)
chain: B1 chain with A74L, M249D
In the case of B6, the Km (other: enzyme M248D) is reported as 1.25 (± 0.4) µM, the Vmax (other: enzyme M248D) is reported as 62.2 µM/min and the kcat (other: enzyme M248D) is reported as 30.5 s⁻¹. The kcat/Km (other: enzyme M248D) was 2.44e+07 M⁻¹ s⁻¹.

B7: pig kidney FBPase M177A (Sus scrofa; M178A) (protein)
chain: B1 chain with A74L, M178A
For B7, the Km (other: enzyme M177A_1) was 4.20 (± 0.6) µM, the Vmax (other: enzyme M177A_1) was 26.1 µM/min and the kcat (other: enzyme M177A_1) was 12.8 s⁻¹. The kcat/Km (other: enzyme M177A_1) was 3.1e+06 M⁻¹ s⁻¹, the Km [1] was 4.80 (± 0.5) µM and the Vmax [1] was 23.4 µM/min. The kcat [1] was 11.5 s⁻¹ and the kcat/Km [1] was 2.4e+06 M⁻¹ s⁻¹.

B8: pig kidney FBPase L56A (Sus scrofa; L57A) (protein)
chain: B1 chain with L57A, A74L
B8 was tested, and the Km (other: enzyme L56A) was 5.20 (± 0.2) µM, the Vmax (other: enzyme L56A) was 52.3 µM/min and the kcat (other: enzyme L56A) was 25.6 s⁻¹. It also gave a kcat/Km (other: enzyme L56A) of 4.9e+06 M⁻¹ s⁻¹.
